Source: patent US6013499, “Rho target protein kinase p160” (Kirin Beer Kabushiki Kaisha, dated 2000)

Target: RhoA fused to LexA DNA-binding domain (yeast two hybrid) (human)
Assay: yeast two hybrid, β-galactosidase activity

B1: M2-6 (974-1024) fused to the VP16-activation domain (yeast two hybrid) (other)
chain: KLEKEEEISNLKAAFEKNINTERTLKTQAVNKLAEIMNRKDFKIDRKKANT
  binding result: no binding

B2: M2-9 (906-1004) fused to the VP16-activation domain (yeast two hybrid) (other)
chain: RGLLEEQYFELTQESKKAASRNRQEITDKDHTVSRLEEANSMLTKDIEILRRENEELTEKMKKAEEEYKLEKEEEISNLKAAFEKNINTERTLKTQAVN
  binding result: no binding
